Measured values published in PMC5362230, “MCPIP1, alias Regnase-1 binds and cleaves mRNA of C/EBPβ” (PLoS ONE, 2017).

Target: the molecule itself
Assay: native gel or EMSA; increasing amounts of purified protein (0-200 pmol) incubated with 2 pmol in vitro transcribed 3'UTR fragments of C/EBPβ mRNA; 25 mM Tris, 150 mM NaCl, 2.5 mM MgCl2, 2.5 mM DTT, 0.5 mM EDTA, 0.025 mM ZnCl2, pH 8.3; on ice 20 min; 0.8% agarose gel in TAE; oligomers read from heavier protein-RNA complexes

B1: Full length human MCPIP1 (D141N) recombinant protein (enzyme, UniProt Q5D1E8 1-599, looked up)
chain: MSGPCGEKPVLEASPTMSLWEFEDSHSRQGTPRPGQELAAEEASALELQMKVDFFRKLGYSSTEIHSVLQKLGVQADTNTVLGELVKHGTATERERQTSPDPCPQLPLVPRGGGTPKAPNLEPPLPEEEKEGSDLRPVVINGSNVAMSHGNKEVFSCRGILLAVNWFLERGHTDITVFVPSWRKEQPRPDVPITDQHILRELEKKKILVFTPSRRVGGKRVVCYDDRFIVKLAYESDGIVVSNDTYRDLQGERQEWKRFIEERLLMYSFVNDKFMPPDDPLGRHGPSLDNFLRKKPLTLEHRKQPCPYGRKCTYGIKCRFFHPERPSCPQRSVADELRANALLSPPRAPSKDKNGRRPSPSSQSSSLLTESEQCSLDGKKLGAQASPGSRQEGLTQTYAPSGRSLAPSGGSGSSFGPTDWLPQTLDSLPYVSQDCLDSGIGSLESQMSELWGVRGGGPGEPGPPRAPYTGYSPYGSELPATAAFSAFGRAMGAGHFSVPADYPPAPPAFPPREYWSEPYPLPPPTSVLQEPPVQSPGAGRSPWGRAGSLAKEQASVYTKLCGVFPPHLVEAVMGRFPQLLDPQQLAAEILSYKSQHPSE
notes: Monocyte chemoattractant protein-1-induced protein 1 (MCPIP1, Regnase-1), human, full length; point mutation D141N in the PIN domain abolishes RNase activity; also called Regnase-1 D141N; source: recombinant, purified
binding result: binds
